Data from PMC2728434 (The EMBO Journal, 2009).
Like-named read-outs stand apart in the source and are kept apart here. Each block holds one binder with its values, some of them ahead of it.

How the values were obtained:
[1] = biological target: T1, Importin β (Kap95p), scImpβ-His6 (yeast, UniProt Q06142 1-861); test: SEC
T1 sequence (looked up): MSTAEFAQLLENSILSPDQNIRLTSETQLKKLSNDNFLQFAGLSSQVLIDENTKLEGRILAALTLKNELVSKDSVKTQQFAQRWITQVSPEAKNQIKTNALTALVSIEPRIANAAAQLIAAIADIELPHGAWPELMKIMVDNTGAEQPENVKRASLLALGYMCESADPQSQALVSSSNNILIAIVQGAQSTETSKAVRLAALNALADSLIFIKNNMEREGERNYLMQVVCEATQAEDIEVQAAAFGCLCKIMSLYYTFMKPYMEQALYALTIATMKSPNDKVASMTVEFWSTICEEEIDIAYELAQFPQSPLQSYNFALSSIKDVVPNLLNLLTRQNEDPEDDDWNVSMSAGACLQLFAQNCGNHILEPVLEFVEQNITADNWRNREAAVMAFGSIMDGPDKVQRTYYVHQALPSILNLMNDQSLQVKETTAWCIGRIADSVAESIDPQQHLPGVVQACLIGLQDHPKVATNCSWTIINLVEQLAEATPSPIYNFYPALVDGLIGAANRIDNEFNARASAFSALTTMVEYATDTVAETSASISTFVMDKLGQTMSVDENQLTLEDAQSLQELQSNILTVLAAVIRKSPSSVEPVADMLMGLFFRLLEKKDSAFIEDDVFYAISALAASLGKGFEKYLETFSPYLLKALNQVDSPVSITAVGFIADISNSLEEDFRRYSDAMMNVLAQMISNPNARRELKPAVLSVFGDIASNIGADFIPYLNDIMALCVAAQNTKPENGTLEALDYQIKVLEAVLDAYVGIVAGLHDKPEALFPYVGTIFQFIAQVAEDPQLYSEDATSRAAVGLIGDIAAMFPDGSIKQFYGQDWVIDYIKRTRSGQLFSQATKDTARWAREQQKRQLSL

[2] = biological target: T1, Importin β (Kap95p), scImpβ-His6; test: SEC; remark: listed apart in the source

binding result [1]: binds
B1: IBB-MBP-mEGFP (domain or fragment, Saccharomyces cerevisiae, UniProt Q02821 2-63, looked up)
chain: DNGTDSSTSKFVPEYRRTNFKNKGRFSADELRRRRDTQQVELRKAKRDEALAKRRNFIPPTD

binding result [2]: binds
B2: IBB-ZsGreen (domain or fragment, Saccharomyces cerevisiae, UniProt Q02821 2-63, looked up)
chain: B1 chain
